Key:
FP receptor = biological target: T1, FP receptor (Homo sapiens, UniProt P43088); assay: Phosphoinositide hydrolysis in A549 cells stably expressing the peptides, stimulated with PGF2α; format: cell-based; conditions: peptide stably expressed intracellularly in A549 cells; 1 μM PGF2α, 30 min; n=3; FIG. 1A
T1 construct: introduced transiently into permeabilized A549 cells; endogenous in cells; host or cells: A549 lung carcinoma cells (ATCC CCL185)
Method: (§1) A549 lung carcinoma cells (ATCC Accession No.: CCL185, American Type Culture Collection, Rockville, Md. 20852) were cultured in Dulbecco's modified Eagles medium (DMEM) with 10% fetal bovine serum (FBS) and antibiotics, penicillin (10 U/ml) and streptomycin (10 μg/ml) in a humidified atmosphere containing 5% CO2 at 37° C. The cells were trypsinized and plated in 6-well tissue culture dishes at 2×10^5 cells/well, a day before commencing the experiments.
(§2) The expression plasmids carrying the third (PCP-1) and the fourth (PCP-2) intracellular domains were introduced into A549 cells using Transfectamine lipid (GIBCO Life Technologies, Burlington, ON). Three (3) micrograms of DNA and 16 μg of lipid were mixed in 200 μl of water and incubated at room temperature for 45 min. Then, the lipid-DNA complexes were diluted with 0.8 ml of Opti-MEM™ (GIBCO Life Technologies, Burlington, ON). The cells were washed twice with Hank's Balanced Salt Solution and incubated with lipid-DNA complexes for 6 hours. An equal volume of DMEM with 20% FBS was added and the cells were kept in the incubator overnight. On the next day, the medium was replaced with DMEM containing 10% FBS and antibiotics and incubated for another 24 hours. […]

EP1 = biological target: T2, EP1 (Homo sapiens, UniProt P34995); assay: Phosphoinositide hydrolysis in A549 cells stably expressing the peptides, stimulated with PGE2; format: cell-based; conditions: peptide stably expressed intracellularly in A549 cells; 1 μM PGE2, 30 min; FIG. 1B
T2 construct: a related prostaglandin receptor expressed in these cells; endogenous in cells; host or cells: A549 lung carcinoma cells (ATCC CCL185)
T2 sequence (P34995 1-402): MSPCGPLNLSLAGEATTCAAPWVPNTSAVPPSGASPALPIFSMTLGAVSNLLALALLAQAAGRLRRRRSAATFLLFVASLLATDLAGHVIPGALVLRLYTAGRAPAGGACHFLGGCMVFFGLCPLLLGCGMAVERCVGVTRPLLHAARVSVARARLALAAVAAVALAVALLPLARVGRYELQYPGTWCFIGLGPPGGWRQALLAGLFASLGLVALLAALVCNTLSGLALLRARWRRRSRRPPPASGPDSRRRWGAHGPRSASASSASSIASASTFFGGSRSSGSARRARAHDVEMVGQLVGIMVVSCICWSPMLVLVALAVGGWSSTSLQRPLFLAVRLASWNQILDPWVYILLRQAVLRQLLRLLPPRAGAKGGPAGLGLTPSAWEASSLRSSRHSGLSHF
Method: as §1, §2

T1 sequence (P43088 whole entry): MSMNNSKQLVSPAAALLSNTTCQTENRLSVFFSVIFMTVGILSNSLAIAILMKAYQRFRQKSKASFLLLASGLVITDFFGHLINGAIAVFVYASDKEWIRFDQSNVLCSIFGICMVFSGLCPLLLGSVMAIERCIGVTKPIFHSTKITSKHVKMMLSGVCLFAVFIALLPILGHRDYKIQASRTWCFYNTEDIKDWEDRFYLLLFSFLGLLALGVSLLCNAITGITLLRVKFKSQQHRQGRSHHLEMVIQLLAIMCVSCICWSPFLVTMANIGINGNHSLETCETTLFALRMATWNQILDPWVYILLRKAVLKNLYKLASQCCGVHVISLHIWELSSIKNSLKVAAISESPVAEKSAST

| Sequence | ligand-stimulated phosphoinositide hydrolysis (fold stimulation over unstimulated controls) (FP receptor) | inositol phosphate generation by EP1 receptor on stimulation with PGE2 (EP1) |
| --- | --- | --- |
| RKAVLKNLYKLASQCCGVHVISLHIWELSSIKNSLKVAAISESPVAEKSAST (RKAVLKNLYKLASQCCGVHVISLHIWELSSIKNSLKVAAISESPVAEKSAST) [PCP-2, fourth intracellular domain of the human FP receptor, expressed intracellularly from a plasmid] | inhibited | did not affect |
| RVKFKSQQHR QGRSHHLEM (RVKFKSQQHRQGRSHHLEM) [PCP-1, third intracellular domain of the human FP receptor, expressed intracellularly from a plasmid] | inhibited | did not affect |
